Consider two molecules from patent US20070224620A1 (PROMEGA, published 2007).

The chains are these.
B2: HaloTag (HT) alone (enzyme, Rhodococcus rhodochrous, UniProt P0A3G2 1-293, looked up)
chain: MSEIGTGFPFDPHYVEVLGERMHYVDVGPRDGTPVLFLHGNPTSSYLWRNIIPHVAPSHRCIAPDLIGMGKSDKPDLDYFFDDHVRYLDAFIEALGLEEVVLVIHDWGSALGFHWAKRNPERVKGIACMEFIRPIPTWDEWPEFARETFQAFRTADVGRELIIDQNAFIEGALPMGVVRPLTEVEMDHYREPFLKPVDREPLWRFPNELPIAGEPANIVALVEAYMNWLHQSPVPKLLFWGTPGVLIPPAEAARLAESLPNCKTVDIGPGLFLLQEDNPDLIGSEIARWLPAL
notes: Control bait without a fused partner, covalently captured on HaloLink resin; also called mutant dehalogenase protein

The experiment “HaloTag (HT) alone” addresses B2. Nature of the experiment: HaloLink resin pull-down, lane 1: HT alone as bait, 2 uM rapamycin, no DTTSP; release of fluorescent prey read on gel; text: showed no background binding of Prey. The protocol:
Remove final wash solution and add protein-protein crosslinked material to resin. Incubate at 22° C. for one hour. Wash resin 5×1 mL with 1×TBS+0.05% IGEPAL as described above. Remove final wash. At this point, the crosslinked protein-protein complex has been covalently captured and purified on the resin and can be resuspended in the desired buffer. In samples treated with the crosslinker DTTSP, resupend resin in 1×SDS Loading buffer containing 5 mM β-Me and boil at 95° C. for 5 minutes to reverse the protein-protein crosslinks. Analyse samples using SDS gel electrophoresis.

Another experiment addresses T1, GST-cFos (UniProt P01100 1-380, fluorescently labeled using Lys-tRNA with FluoroTect Green (labelled lysines, positions not stated)).
T1 construct: N-terminal GST fusion expressed in rabbit reticulocyte lysate; also called Prey; not shown: GST, N-terminal fusion partner encoded by Flexi vector pFN2A (Promega)
Nature of the experiment: HaloLink resin pull-down, lane 3: HT alone as bait, no crosslinker; release of fluorescent prey read on gel.

T1 sequence (P01100 whole entry, the tested form may be a part): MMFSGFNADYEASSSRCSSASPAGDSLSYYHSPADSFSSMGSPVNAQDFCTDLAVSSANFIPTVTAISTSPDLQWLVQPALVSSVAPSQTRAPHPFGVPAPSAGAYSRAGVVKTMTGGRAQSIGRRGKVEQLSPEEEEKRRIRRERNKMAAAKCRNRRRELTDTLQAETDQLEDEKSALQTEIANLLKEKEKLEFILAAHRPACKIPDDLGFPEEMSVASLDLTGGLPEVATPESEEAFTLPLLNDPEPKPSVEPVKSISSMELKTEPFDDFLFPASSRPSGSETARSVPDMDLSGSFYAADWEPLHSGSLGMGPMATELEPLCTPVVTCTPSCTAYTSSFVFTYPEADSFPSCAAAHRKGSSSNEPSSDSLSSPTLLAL

B1: GST-Frb (other)
chain: ILWHEMWHEGLEEASRLYFGERNVKGMFEVLEPLHAMMERGPQTLKETSFNQAYGRDLMEAQEWCRKYMKSGNVKDLTQAWDLYYHVFRRISK
modifications: fluorescently labeled using Lys-tRNA with FluoroTect Green (labelled lysines, positions not stated)
notes: domain: Frb domain of Frap; N-terminal GST fusion expressed in rabbit reticulocyte lysate; linker not described; also called Prey; Frb domain of Frap; not shown: GST, N-terminal fusion partner encoded by Flexi vector pFN2A (Promega)
Regarding B1, the binding result in the experiment with HaloTag (HT) alone is listed as “no binding”.

For B2, the binding result with GST-cFos was “no binding”.
